Test [1] has as its target T1, EGFP-Atg11 (full-length yeast Atg11) (yeast (S. cerevisiae), UniProt Q12527 1-1178).
T1 construct: Atg11, S. cerevisiae, full length, 135 kDa; also called EGFP tagged Atg11; not shown: EGFP, N-terminal, kept
T1 sequence (looked up): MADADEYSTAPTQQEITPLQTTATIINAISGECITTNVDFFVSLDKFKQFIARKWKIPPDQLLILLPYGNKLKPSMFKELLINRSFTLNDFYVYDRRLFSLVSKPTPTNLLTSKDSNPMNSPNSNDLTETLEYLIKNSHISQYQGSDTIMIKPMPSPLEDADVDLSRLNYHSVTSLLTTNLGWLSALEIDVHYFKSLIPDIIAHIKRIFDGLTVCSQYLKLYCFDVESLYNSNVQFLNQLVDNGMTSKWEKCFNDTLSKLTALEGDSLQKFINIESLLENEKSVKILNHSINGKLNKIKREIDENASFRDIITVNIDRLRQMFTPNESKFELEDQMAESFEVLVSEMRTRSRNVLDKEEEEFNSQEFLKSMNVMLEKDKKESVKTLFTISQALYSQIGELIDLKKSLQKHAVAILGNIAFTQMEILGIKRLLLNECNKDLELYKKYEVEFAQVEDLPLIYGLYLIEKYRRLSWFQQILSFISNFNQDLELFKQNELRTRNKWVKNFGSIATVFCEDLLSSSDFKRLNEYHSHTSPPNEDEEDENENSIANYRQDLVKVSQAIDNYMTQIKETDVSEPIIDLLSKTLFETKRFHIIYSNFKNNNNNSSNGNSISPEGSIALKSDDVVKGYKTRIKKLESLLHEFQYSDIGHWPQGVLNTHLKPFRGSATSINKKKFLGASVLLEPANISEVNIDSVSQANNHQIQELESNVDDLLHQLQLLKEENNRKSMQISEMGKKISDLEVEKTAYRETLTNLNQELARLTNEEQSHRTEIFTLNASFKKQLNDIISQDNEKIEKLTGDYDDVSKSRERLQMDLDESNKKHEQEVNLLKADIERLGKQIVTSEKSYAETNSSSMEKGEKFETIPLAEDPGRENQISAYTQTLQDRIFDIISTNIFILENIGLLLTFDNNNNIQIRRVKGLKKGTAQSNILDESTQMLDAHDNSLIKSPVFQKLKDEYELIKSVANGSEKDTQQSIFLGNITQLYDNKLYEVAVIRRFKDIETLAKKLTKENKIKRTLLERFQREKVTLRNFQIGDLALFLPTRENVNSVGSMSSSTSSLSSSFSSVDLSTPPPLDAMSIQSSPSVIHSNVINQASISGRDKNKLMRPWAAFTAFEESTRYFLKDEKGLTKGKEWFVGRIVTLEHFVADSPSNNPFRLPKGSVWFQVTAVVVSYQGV
Description: NMR titration; 1H-15N HSQC of 0.2 mM labelled Atg9-NTD, unlabelled EGFP-Atg11 added stepwise (0.02, 0.04, 0.08 mM); 20 mM Bis-Tris pH 6, 300 mM NaCl; 298 K, 600 MHz; read-out: loss of peak intensity. The note with it: both partners purified.

Test [2] addresses T1, EGFP-Atg11 (full-length yeast Atg11). Description: ITC; Atg9-NTD (300 to 500 μM, syringe) into EGFP-Atg11 (50 to 100 μM, cell); 25 °C; 20 mM Tris pH 7.4, 300 mM NaCl; single binding site; two replicates. The settings on record: both partners purified. Background: In ITC the heat of successive injections is recorded.

Several values for one entry are separate records, joined by “and”; a condition that tells them apart may be missing. Equal values may be shown once.

In general, Kd refers to a measure of binding affinity in units of concentration. A word on the stoichiometry N: it is the number of molecules, sites or subunits per partner or assembly.

B1: Atg9-NTD(1–285) (domain or fragment, S. cerevisiae, UniProt Q12142 1-285, looked up)
chain: MERDEYQLPNSHGKNTFLSRIFGLQSDEVNPSLNSQEMSNFPLPDIERGSSLLHSTNDSREDVDENDLRVPESDQGTSTEEEDEVDEEQVQAYAPQISDGLDGDHQLNSVTSKENVLETEKSNLERLVEGSTDDSVPKVGQLSSEEEEDNEFINNDGFDDDTPLFQKSKIHEFSSKKSNTIEDGKRPLFFRHILQNNRPQRDTQKLFTSSNAIHHDKDKSANNGPRNINGNQKHGTKYFGSATQPRFTGSPLNNTNRFTKLFPLRKPNLLSNISVLNNTPEDRIN
notes: Atg9, S. cerevisiae, N-terminal disordered domain, residues 1-285; The EGFP tag was cleaved with 3C protease for the sample of the resonance assignment; also called Atg9 NTD (residues 1–285); fragment 1 to 285
B1: the binding result in test [1] is recorded as “binds”.

B2: Atg9-NTD (29–255)-mCherry (domain or fragment, S. cerevisiae, UniProt Q12142 29-255, looked up)
chain: VNPSLNSQEMSNFPLPDIERGSSLLHSTNDSREDVDENDLRVPESDQGTSTEEEDEVDEEQVQAYAPQISDGLDGDHQLNSVTSKENVLETEKSNLERLVEGSTDDSVPKVGQLSSEEEEDNEFINNDGFDDDTPLFQKSKIHEFSSKKSNTIEDGKRPLFFRHILQNNRPQRDTQKLFTSSNAIHHDKDKSANNGPRNINGNQKHGTKYFGSATQPRFTGSPLNNT
notes: also called shorter construct of Atg9-NTD; not shown: mCherry, C-terminal, kept
Take B2: the binding result in test [1] is “binds”.

B3: Atg9-NTD-(1–255)-mCherry, wild type (domain or fragment, S. cerevisiae, UniProt Q12142 1-255, looked up)
chain: MERDEYQLPNSHGKNTFLSRIFGLQSDEVNPSLNSQEMSNFPLPDIERGSSLLHSTNDSREDVDENDLRVPESDQGTSTEEEDEVDEEQVQAYAPQISDGLDGDHQLNSVTSKENVLETEKSNLERLVEGSTDDSVPKVGQLSSEEEEDNEFINNDGFDDDTPLFQKSKIHEFSSKKSNTIEDGKRPLFFRHILQNNRPQRDTQKLFTSSNAIHHDKDKSANNGPRNINGNQKHGTKYFGSATQPRFTGSPLNNT
notes: mCherry is named for the bead assay; also called mCherry-tagged Atg9-NTD; not shown: mCherry, C-terminal, kept
In the case of B3, in test [2], the affinity, expressed as Kd, was 1.09 µM; the dH is -5.87 ± 1.34 kcal/mol; the “stoichiometry N” value is 0.931 and 0.94.

Values taken from paper PMC8814668, “Mechanism of Atg9 recruitment by Atg11 in the cytoplasm-to-vacuole targeting pathway” (The Journal of Biological Chemistry, 2022).
